Data reported in patent US20250108122A1 (SHANGHAI MABGEN BIOTECH, published 2025).

T1: human CD79b protein on DoHH2 and WSU-DLCL2 cells (human, UniProt P40259 29-229)
T1 sequence (looked up): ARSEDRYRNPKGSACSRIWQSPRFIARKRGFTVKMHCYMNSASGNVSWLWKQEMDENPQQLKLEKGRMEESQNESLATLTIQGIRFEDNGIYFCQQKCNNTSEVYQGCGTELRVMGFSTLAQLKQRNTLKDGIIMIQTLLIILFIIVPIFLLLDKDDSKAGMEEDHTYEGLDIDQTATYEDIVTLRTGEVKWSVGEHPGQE

T2: human CD79b protein (human, UniProt P40259 29-159, limits assumed)
T2 construct: Recombinant protein used in the Biacore assay
T2 sequence (looked up): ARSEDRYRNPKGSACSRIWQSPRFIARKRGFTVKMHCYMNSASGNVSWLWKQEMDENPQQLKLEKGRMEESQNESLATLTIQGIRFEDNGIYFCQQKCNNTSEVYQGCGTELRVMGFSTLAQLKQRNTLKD


Assays:
[1] = biological target: T1, human CD79b protein on DoHH2 and …; assay: cell-based or functional assay
[2] = biological target: T2, human CD79b protein; assay: Biacore affinity assay, 1:1 Langmuir fit; column head prints EC50 (nM)
Method: Data fitting was performed with a (1:1) Langmuir model using BIAevaluation version 4.1, GE software to obtain affinity values.

Row | Binder | IC50 of in vitro proliferation inhibition (MTT, 72 h), DoHH2 cells [1] [µg/mL] | IC50 of in vitro proliferation inhibition (MTT, 72 h), WSU-DLCL2 cells [1] [µg/mL] | KD (binding affinity) [2] [nM]
1 | ADC-6 (hAb015-10-cys-D, with a DAR value of about 4) (antibody, human IgG1, kappa, V domains shown, compound D (exatecan derivative linker-drug, Topo I inhibitor) coupled to cysteines after TCEP reduction; positions not given; mean n=3.46 per antibody (RP-HPLC)) VH: EVQLVQSGAEVKKPGSSVKVSCKASGSSFSSYGINWVKQAPGQGLEWIGEIFPRSGNTYYNEKFEGRATLTADKSTSTAYMELRSLRSEDTAVYYCAKGDLGDFDYWGQGTTVTVSS VL: DFVMTQTPLSLPVTPGEPASISCRSSQSIVHSDGNTYFEWYLQKPGQSPKLLIYKVSNRFSGVPDRFSGSGSGTDFTLKISRVEAEDVGVYYCFQGSHVPWTFGGGTKVEIKR | 0.0033 | 0.0542 | –
2 | ADC-7 (hAb015-10-cys-D, with a DAR value of about 6) (antibody, human IgG1, kappa, V domains shown, compound D (exatecan derivative linker-drug, Topo I inhibitor) coupled to cysteines after TCEP reduction; positions not given; mean n=5.84 per antibody (RP-HPLC)) VH: EVQLVQSGAEVKKPGSSVKVSCKASGSSFSSYGINWVKQAPGQGLEWIGEIFPRSGNTYYNEKFEGRATLTADKSTSTAYMELRSLRSEDTAVYYCAKGDLGDFDYWGQGTTVTVSS VL: DFVMTQTPLSLPVTPGEPASISCRSSQSIVHSDGNTYFEWYLQKPGQSPKLLIYKVSNRFSGVPDRFSGSGSGTDFTLKISRVEAEDVGVYYCFQGSHVPWTFGGGTKVEIKR | 0.002 | 0.0534 | –
3 | ADC-8 (SN8-cys-MC-PAB-MMAE, with a DAR value of about 4) (antibody, human IgG1, kappa, V domains shown, MC-VC-PAB-MMAE coupled to cysteines after TCEP reduction; positions not given; mean n=3.59 per antibody (CE-SDS)) VH: EVQLVESGGGLVQPGGSLRLSCAASGYTFSSYWIEWVRQAPGKGLEWIGEILPGGGDTNYNEIFKGRATFSADTSKNTAYLQMNSLRAEDTAVYYCTRRVPIRLDYWGQGTLVTVSS VL: DIQLTQSPSSLSASVGDRVTITCKASQSVDYEGDSFLNWYQQKPGKAPKLLIYAASNLESGVPSRFSGSGSGTDFTLTISSLQPEDFATYYCQQSNEDPLTFGQGTKVEIKR | 0.0806 | 0.117 | –
4 | ADC-3 (hAb015-10-cys-MC-vc-PAB-MMAE) (antibody, human IgG1, kappa, V domains shown, MC-vc-PAB-MMAE coupled to cysteines after TCEP reduction; positions not given; mean n=3.09 per antibody (CE-SDS)) VH: EVQLVQSGAEVKKPGSSVKVSCKASGSSFSSYGINWVKQAPGQGLEWIGEIFPRSGNTYYNEKFEGRATLTADKSTSTAYMELRSLRSEDTAVYYCAKGDLGDFDYWGQGTTVTVSS VL: DFVMTQTPLSLPVTPGEPASISCRSSQSIVHSDGNTYFEWYLQKPGQSPKLLIYKVSNRFSGVPDRFSGSGSGTDFTLKISRVEAEDVGVYYCFQGSHVPWTFGGGTKVEIKR | 0.0033 | 0.0059 | –
5 | ADC-5 (HAB015-10-cys-D, with a DAR value of about 2) (antibody, human IgG1, kappa, V domains shown, compound D (exatecan derivative linker-drug, Topo I inhibitor) coupled to cysteines after TCEP reduction; positions not given; mean n=1.81 per antibody (RP-HPLC), Antibody-drug conjugate of hAb015-10 with compound D) VH: EVQLVQSGAEVKKPGSSVKVSCKASGSSFSSYGINWVKQAPGQGLEWIGEIFPRSGNTYYNEKFEGRATLTADKSTSTAYMELRSLRSEDTAVYYCAKGDLGDFDYWGQGTTVTVSS VL: DFVMTQTPLSLPVTPGEPASISCRSSQSIVHSDGNTYFEWYLQKPGQSPKLLIYKVSNRFSGVPDRFSGSGSGTDFTLKISRVEAEDVGVYYCFQGSHVPWTFGGGTKVEIKR | 0.0085 | 0.0683 | –
6 | hAb015-10 (antibody, human IgG1, kappa, V domains shown, Humanized form of the mouse hybridoma antibody mAb015; also called humanized anti-CD79b antibody hAb015-10; naked antibody) VH: EVQLVQSGAEVKKPGSSVKVSCKASGSSFSSYGINWVKQAPGQGLEWIGEIFPRSGNTYYNEKFEGRATLTADKSTSTAYMELRSLRSEDTAVYYCAKGDLGDFDYWGQGTTVTVSS VL: DFVMTQTPLSLPVTPGEPASISCRSSQSIVHSDGNTYFEWYLQKPGQSPKLLIYKVSNRFSGVPDRFSGSGSGTDFTLKISRVEAEDVGVYYCFQGSHVPWTFGGGTKVEIKR | – | – | 0.38
